In the assay the target is T1, mac251 gp120 (Immune Technology Corp.) (SIV mac251, UniProt P08810 20-527).
T1 construct: Coated on ELISA plates at 2 ug/mL; also called SIV mac251 gp120
T1 sequence: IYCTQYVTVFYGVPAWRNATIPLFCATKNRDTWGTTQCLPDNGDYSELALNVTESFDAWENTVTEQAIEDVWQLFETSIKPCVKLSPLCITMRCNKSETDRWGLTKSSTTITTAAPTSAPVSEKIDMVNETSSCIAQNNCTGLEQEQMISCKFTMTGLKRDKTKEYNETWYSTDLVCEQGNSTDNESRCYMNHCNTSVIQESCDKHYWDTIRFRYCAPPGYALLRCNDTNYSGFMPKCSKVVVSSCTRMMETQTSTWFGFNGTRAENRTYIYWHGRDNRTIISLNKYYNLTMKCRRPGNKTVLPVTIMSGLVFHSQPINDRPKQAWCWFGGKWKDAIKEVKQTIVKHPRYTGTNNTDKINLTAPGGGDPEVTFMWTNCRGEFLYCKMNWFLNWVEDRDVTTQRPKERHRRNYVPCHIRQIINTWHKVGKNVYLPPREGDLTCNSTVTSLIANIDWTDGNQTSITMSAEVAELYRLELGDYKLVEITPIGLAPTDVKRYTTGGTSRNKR
The assay is described as follows: ELISA, mac251 gp120 coated at 2 ug/mL, immunoadhesin at 50 ng/mL, detected with anti-human IgG-biotin and streptavidin-HRP.

The values that follow come from patent US20240277871A1 (University of Pennsylvania, published 2024).

B1: rhesus macaque anti-SIV mac251 gp120 IgG-201 immunoadhesin (201IA) (Fc fusion)
chain: EVQLLESGPGLVKPSETLSLTCAVSGLSISSDFSWAWIRQTPGKALEYVGYIRGNTGDTYYNPSLKSRLTISKDTSKNQIYLNLSSVTAGDAAVYYCARDRVCDDDYGYYYTEVCFGLDSWGQGIVVTVSSGGGGSGGGGSGGGGSAELVMTQSPLSLSVAPGQTASISCRSSQSLDYANGNTYLSWFHQRPGQPPRRLIYQISNRDSGVPDRFSGSGAGTEFTLRISRMESDDVGIYYCGQGTTFPRTFGQGTKVEIKTCGGGSKPPTCPPCTSPELLGGPSVFLFPPKPKDTLMISRTPEVTCVVVDVSQEDPDVKFNWYVNGAEVHHAQTKPRETQYNSTYRVVSVLTVTHQDWLNGKEYTCKVSNKALPAPIQKTISKDKGQPREPQVYTLPPSREELTKNQVSLTCLVKGFYPSDIVVEWESSGQPENTYKTTPPVLDSDGSYFLYSKLTVDKSRWQQGNVFSCSVMHEALHNHYTQKSLSLSPGK
notes: also called 201 anti-SIV immunoadhesin; 201IA standard protein produced in-house
For the molecule B1, the binding result is listed as “binds”.

B2: 201IA(I253A) (Fc fusion)
chain: EVQLLESGPGLVKPSETLSLTCAVSGLSISSDFSWAWIRQTPGKALEYVGYIRGNTGDTYYNPSLKSRLTISKDTSKNQIYLNLSSVTAGDAAVYYCARDRVCDDDYGYYYTEVCFGLDSWGQGIVVTVSSGGGGSGGGGSGGGGSAELVMTQSPLSLSVAPGQTASISCRSSQSLDYANGNTYLSWFHQRPGQPPRRLIYQISNRDSGVPDRFSGSGAGTEFTLRISRMESDDVGIYYCGQGTTFPRTFGQGTKVEIKTCGGGSKPPTCPPCTSPELLGGPSVFLFPPKPKDTLMASRTPEVTCVVVDVSQEDPDVKFNWYVNGAEVHHAQTKPRETQYNSTYRVVSVLTVTHQDWLNGKEYTCKVSNKALPAPIQKTISKDKGQPREPQVYTLPPSREELTKNQVSLTCLVKGFYPSDIVVEWESSGQPENTYKTTPPVLDSDGSYFLYSKLTVDKSRWQQGNVFSCSVMHEALHNHYTQKSLSLSPGK
notes: No leader limits are stated; Expressed in HEK293 cells and purified on Protein A; also called I253A 201IA mutant
On to B2, for which the binding result is reported as “binds”.
